Test results published in US20200087400A1 (EUREKA THERAPEUTICS, published 2020).

Key:
[1] = biological target: T1, Bio-P19 member A2E-1 (chain 2: C-terminal BirA substrate peptide (BSP), enzymatically biotinylated; its letters are not printed in the patent and it is left out); test: phage ELISA, streptavidin plate, anti-M13-HRP
T1 construct: also called biotinylated control peptide A2E-1/HLA-A*02:01 monomer
Protocol: (§1) Individual phage clones from enriched phage display panning pools against PSA146/HLA-A*02:01 complex were incubated in the coated plates. Binding of the phage clones was detected by HRP-conjugated anti-M13 antibodies and developed using HRP substrate. The absorbance was read at 450 nm. […] Then, unique antibody clones were identified through DNA sequencing of ELISA-positive clones. […] T2 cells loaded with different peptides and β2M were first stained with purified scFv phage clones, followed by staining with a mouse anti-M13 mAb, and finally R-PE conjugated horse anti-mouse IgG from Vector Labs. Each step of the staining was performed for between 30-60 minutes on ice and the cells were washed twice between stainings. All 16 clones recognized PSA146-loaded T2 cells specifically. FIG. 3 provides examples of PSA146/HLA-A*02:01 specific phage clone binding to peptide-loaded T2 cells through FACS.

[2] = biological target: T2, Bio-P19 member A2E-10 (chain 2: C-terminal BirA substrate peptide (BSP), enzymatically biotinylated; its letters are not printed in the patent and it is left out); test: phage ELISA, streptavidin plate, anti-M13-HRP
T2 construct: also called biotinylated control peptide A2E-10/HLA-A*02:01 monomer
Protocol: as §1

[3] = biological target: T3, Bio-P19 member A2E-11 (chain 2: C-terminal BirA substrate peptide (BSP), enzymatically biotinylated; its letters are not printed in the patent and it is left out); test: phage ELISA, streptavidin plate, anti-M13-HRP
T3 construct: also called biotinylated control peptide A2E-11/HLA-A*02:01 monomer
Protocol: as §1

[4] = biological target: T4, Bio-P19 member A2E-13 (chain 2: C-terminal BirA substrate peptide (BSP), enzymatically biotinylated; its letters are not printed in the patent and it is left out); test: phage ELISA, streptavidin plate, anti-M13-HRP
T4 construct: also called biotinylated control peptide A2E-13/HLA-A*02:01 monomer
Protocol: as §1

[5] = biological target: T5, Bio-P19 member A2E-14 (chain 2: C-terminal BirA substrate peptide (BSP), enzymatically biotinylated; its letters are not printed in the patent and it is left out); test: phage ELISA, streptavidin plate, anti-M13-HRP
T5 construct: also called biotinylated control peptide A2E-14/HLA-A*02:01 monomer
Protocol: as §1

[6] = biological target: T6, Bio-P19 member A2E-15 (chain 2: C-terminal BirA substrate peptide (BSP), enzymatically biotinylated; its letters are not printed in the patent and it is left out); test: phage ELISA, streptavidin plate, anti-M13-HRP
T6 construct: also called biotinylated control peptide A2E-15/HLA-A*02:01 monomer
Protocol: as §1

[7] = biological target: T7, Bio-P19 member A2E-16 (chain 2: C-terminal BirA substrate peptide (BSP), enzymatically biotinylated; its letters are not printed in the patent and it is left out); test: phage ELISA, streptavidin plate, anti-M13-HRP
T7 construct: also called biotinylated control peptide A2E-16/HLA-A*02:01 monomer
Protocol: as §1

[8] = biological target: T8, Bio-P19 member A2E-17 (chain 2: C-terminal BirA substrate peptide (BSP), enzymatically biotinylated; its letters are not printed in the patent and it is left out); test: phage ELISA, streptavidin plate, anti-M13-HRP
T8 construct: also called biotinylated control peptide A2E-17/HLA-A*02:01 monomer
Protocol: as §1

[9] = biological target: T9, Bio-P19 member A2E-19 (chain 2 carries a C-terminal BirA substrate peptide (BSP), enzymatically biotinylated; the BSP letters are not given in the patent and are left out); test: phage ELISA, streptavidin plate, anti-M13-HRP
T9 construct: also called biotinylated control peptide A2E-19/HLA-A*02:01 monomer
Protocol: as §1

[10] = biological target: T10, Bio-P19 member A2E-21 (chain 2 carries a C-terminal BirA substrate peptide (BSP), enzymatically biotinylated; the BSP letters are not given in the patent and are left out); test: phage ELISA, streptavidin plate, anti-M13-HRP
T10 construct: also called biotinylated control peptide A2E-21/HLA-A*02:01 monomer
Protocol: as §1

[11] = biological target: T11, Bio-P19 member A2E-4 (chain 2 carries a C-terminal BirA substrate peptide (BSP), enzymatically biotinylated; the BSP letters are not given in the patent and are left out); test: phage ELISA, streptavidin plate, anti-M13-HRP
T11 construct: also called biotinylated control peptide A2E-4/HLA-A*02:01 monomer
Protocol: as §1

[12] = biological target: T12, Bio-P19 member A2E-5 (chain 2 carries a C-terminal BirA substrate peptide (BSP), enzymatically biotinylated; the BSP letters are not given in the patent and are left out); test: phage ELISA, streptavidin plate, anti-M13-HRP
T12 construct: also called biotinylated control peptide A2E-5/HLA-A*02:01 monomer
Protocol: as §1

[13] = biological target: T13, Bio-P19 member A2E-6 (chain 2 carries a C-terminal BirA substrate peptide (BSP), enzymatically biotinylated; the BSP letters are not given in the patent and are left out); test: phage ELISA, streptavidin plate, anti-M13-HRP
T13 construct: also called biotinylated control peptide A2E-6/HLA-A*02:01 monomer
Protocol: as §1

[14] = biological target: T14, Bio-P19 member A2E-7 (chain 2 (heavy): C-terminal BirA substrate peptide, biotinylated there by BirA; tag letters not given, left out); test: phage ELISA, streptavidin plate, anti-M13-HRP
T14 construct: also called biotinylated control peptide A2E-7/HLA-A*02:01 monomer; not shown: BirA substrate peptide (BSP) tag at the C-terminus of the heavy chain
Protocol: as §1

[15] = biological target: T15, Bio-P19 member A2E-8 (chain 2 (heavy): C-terminal BirA substrate peptide, biotinylated there by BirA; tag letters not given, left out); test: phage ELISA, streptavidin plate, anti-M13-HRP
T15 construct: also called biotinylated control peptide A2E-8/HLA-A*02:01 monomer; not shown: BirA substrate peptide (BSP) tag at the C-terminus of the heavy chain
Protocol: as §1

[16] = biological target: T16, Bio-P19 member A2E-9 (chain 2 (heavy): C-terminal BirA substrate peptide, biotinylated there by BirA; tag letters not given, left out); test: phage ELISA, streptavidin plate, anti-M13-HRP
T16 construct: also called biotinylated control peptide A2E-9/HLA-A*02:01 monomer; not shown: BirA substrate peptide (BSP) tag at the C-terminus of the heavy chain
Protocol: as §1

[17] = biological target: T17, HLA-A*02:01 on T2 cells with no peptide loaded (human); test: flow cytometry, phage on T2 cells, anti-M13 + R-PE anti-mouse IgG
T17 construct: TAP-deficient T2 cells, no peptide loaded from outside; also called T2 cells without peptide loading
Protocol: as §1

Measured: binding result

B1: PSA146/HLA-A*02:01-specific scFv phage clone #2 (scFv, V domains shown)
VH: EVQLVQSGAEVKRPGSSVKVSCKASGGTFSSYAINWVRRAPGQGLEWMGKIIPIPGITNYAQKFQDRVTFTADTSTNIAYMELSSLRSEDTAMYYCARSYKWGSSLVDAWGQGTLVTVSS
VL: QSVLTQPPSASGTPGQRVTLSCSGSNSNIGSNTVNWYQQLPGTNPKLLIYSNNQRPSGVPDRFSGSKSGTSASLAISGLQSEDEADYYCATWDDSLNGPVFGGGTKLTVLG
no binding: all assays above

B2: PSA146/HLA-A*02:01-specific scFv phage clone #3 (scFv, V domains shown)
VH: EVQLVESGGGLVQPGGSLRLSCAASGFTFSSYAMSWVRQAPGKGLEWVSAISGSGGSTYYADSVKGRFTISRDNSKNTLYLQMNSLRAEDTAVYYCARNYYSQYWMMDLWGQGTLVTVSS
VL: QSVLTQPPSVSGAPGQRVTISCTGSSSNFGAGYDVHWYQQLPGAAPKLLIYGDTNRPSGVPDRFSGSKSGTSASLAITGLQAEDEADYYCQSYDTSLSGSVFGGGTKLTVLG
no binding: all assays above

B3: PSA146/HLA-A*02:01-specific scFv phage clone #5 (scFv, V domains shown)
VH: QVQLVQSGAEVKKPGDSVKVSCKPSGYNFLNYGINWVRQAPGQGLEWMGWISTYTGNTNYAQKLQGRVTFTTDTSTSTAYMEMRSLRSDDTAVYYCARSSEYYTWDHWGQGTLVTVSS
VL: QSVLTQPPSVSGAPGQRVTISCTGSSSNIGAGYDVHWYQQLPGTAPKLLIYGNSNRPSGVPDRFSGSKSGTSASLAITGLQAEDEADYYCQSYDSSLSGWVFGGGTKLTVLG
no binding: all assays above

B4: PSA146/HLA-A*02:01-specific scFv phage clone #6 (scFv, V domains shown)
VH: EVQLVQSGAEVKKPGASVKVSCKASGYTFTGYYIHWVRQAPGQGLEWMGGFDPEDGETIYAQKFQDRVTMTADTSTDTAYMELSSLRSEDTAVYYCARYGFDYWGQGTLVTVSS
VL: QAVVTQEPSLTVSPGGTVTLTCASSTGAVTSGYYPNWFQLKPGQAPRALIYTTGKKHSWAPARFSGSLLGGKAALTLSGVQPEDEAEYYCLLYSGGVWVFGGGTKLTVLG
no binding: all assays above
